Source: patent publication US20240166738A1 (priority 2021, published 2024)

Molecular target: GST-TMEM106B (truncated, comprising amino acids 122-210 of SEQ ID NO:1) (Homo sapiens, UniProt Q9NUM4)
Assay: Pre-mix epitope binning of anti-TMEM106B antibodies (Carterra / Lake Pharma)
Assay type: binding
Set-up: key to epitope bin: Bin 1: competes for binding to the same or overlapping TMEM106B region as the TM1, TM17, TM22, TM26, TM79, and/or TM82 antibodies; Bin 2: competes for binding to the same or overlapping TMEM106B region as the TM3, TM9, TM10, TM11, TM12, TM13, TM18, TM19, TM21, TM24, TM25, TM32, TM35, TM37, TM42, TM45, TM48, TM54, TM59, TM60, TM61, and/or TM76 antibodies; Bin 3: competes for binding to the same or overlapping TMEM106B region as the TM7, TM15, TM83, and/or TM84 antibodies; Bin 4: competes for binding to the same or overlapping TMEM106B region as the TMS, TM28, TM29, TM30, TM63, TM64, TM72, TM78, TM80, TM86, and/or TM88 antibodies; Bin 5: does not bind to a truncated TMEM106B comprising amino acids 122-210 of SEQ ID NO:1

Chain of GST-TMEM106B (truncated, comprising amino acids 122-210 of SEQ ID NO:1) (Q9NUM4 122-210): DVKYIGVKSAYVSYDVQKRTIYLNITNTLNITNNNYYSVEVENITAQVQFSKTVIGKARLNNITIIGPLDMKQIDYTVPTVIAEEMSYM

B1: TM-80: anti-TMEM106B monoclonal antibody; VH SEQ ID NO: 485, VL SEQ ID NO: 520 (antibody, V domains shown)
VH: QVQLQQPGAELVKPGASVKLSCKASGYTFTTFWMHWVKQRPGQGLEWIGNIDPSDSETHYNQEFKDKATLTVDRSSNTAYMQLSSLTSEDSAVYYCARSSNWDNFDYWGQGTAVTVSS
VL: DIVMTQAAPSVPVTPGESVSISCRSSQSLLHVNGHTYLYWFLQRPGQSPQLLIYRMSNLASGVPDRFSGSGSGTVFTLRISRVETEDVGIYYCMQHLQYPFTFGSGTKLEIK
modifications: Variable Heavy Chain -- TM-80; Variable Light Chain -- TM-80
B1 was tested, and the epitope bin (competition for binding to truncated GST-TMEM106B (amino acids 122-210)) was “Bin 4” and the “Binding Community/Bin” value (epitope bin number, pre-mix binning on truncated GST-TMEM106B) was 4.
